Changes are numbered by the printed parent chain. In names and notes the source's numbering stands.

Type in all cases: biochemical
Data set [1] can be described thus: Conversion of prodrug of Example 24 to drug of Example 25 by HCPB mutants, HPLC (Example 20). The following applies: enzyme 15 μg/ml; 0.5 mM prodrug of Example 24; 5 minutes at 37° C. The protocol:
The reaction was stopped by adding MeCN (500 μl) plus 0.2% Trifluoroacetic acid. The amount of drug produced was then quantified by HPLC.
HPLC separation was carried out as described in Example 6 except that a mobile phase of 70% MeCN, 30% distilled water and 0.1% trifluoroacetic acid was used to achieve separation of prodrug (retention time 3.8 minutes) and drug (retention time 4.9 minutes) and the compounds were detected at 260 nm. The amount of drug produced was quantified from calibration curves generated with known amounts of drug.
The amount of [Q54R,D145A,D253K]HCPB and [G251T,D253K]HCPB mutants was reduced to 0.75 μg in the reaction mixture.

Data set [2] is described as follows: Conversion of Hipp-Arg to hippuric acid by mutant and native human CPB, HPLC assay (Example 6). The following applies: 5 hr at 37° C.; 4 μg enzyme. The protocol:
(§1) Purified mutants of human CPB (D253K and D253R; Examples 1-3) and native human CPB, produced as described in Reference Example 12, were assayed for their ability to convert either hippuryl-L-aspartic acid (Hipp-Asp—Reference Example 2), hippuryl-L-glutamic acid (Hipp-Glu—Reference Example 1) or hippuryl-L-arginine (Sigma Chemical Company—cat no. H6625) to hippuric acid using a HPLC based assay.
(§2) The reaction mixture (250 μl) contained 4 μg human CPB (native or mutant) and 0.5 mM Hipp-Asp or Hipp-Glu in 0.025 M Tris-HCL, pH 7.5. Samples were incubated for 5 hr at 37° C. The reactions were terminated by the addition of 250 μl of 80% methanol, 20% distilled water, 0.2% trifluoro acetic acid and the amount of hippuric acid generated was quantified by HPLC.
(§3) HPLC analysis was carried out using a Hewlett Packard 1090 Series 11 (with diode array) HPLC system. Samples (50 μl) were injected onto a Hichrom Hi-RPB column (25 cm) and separated using a mobile phase of 40% methanol, 60% distilled water, 0.1% trifluoro acetic acid at a flow rate of 1 ml/min. The amount of product (hippuric acid) produced was determined from calibration curves generated with known amounts of hippuric acid (Sigma-H6375). The results are shown in Table 1 and are expressed as the percentage conversion of substrate into product in 5 hr at 37° C. with 4 μg enzyme.

The nature of data set [3]: Conversion of Hipp-Glu to hippuric acid by mutant and native human CPB, HPLC assay (Example 6). The following applies: 5 hr at 37° C.; 4 μg enzyme; 0.5 mM substrate. The protocol: as §1, §2, §3
A short description of data set [4]: Conversion of Hipp-Asp to hippuric acid by mutant and native human CPB, HPLC assay (Example 6). The following applies: 5 hr at 37° C.; 4 μg enzyme; 0.5 mM substrate. The procedure: as §1, §2, §3
The nature of data set [5]: Conversion of Hipp-Glu by purified HCPB mutants, 30 minutes, HPLC (Example 17). The following applies: 0.5 mM substrate, 30 minutes at 37° C. The protocol:
(§4) Purified mutants of human CPB (D253K; [G251K,D253R]; [G251N,D253R]; [I201S,D253K]; [G251N,D253K]; [Q54R,D145A,D253K]; [G251T,D253K]; [G251S,D253K]; [A248N,G251N,D253K]; [A248S,G251N,D253K] and [S205N,G251N,D253K]—described in Examples 3, 12, 13, 16, 28, 30, 31, 32 and 33) were assayed for their ability to convert hippuryl-L-glutamic acid (Hipp-Glu—Reference Example 1), hippuryl-L-aspartic acid (Hipp-Asp—Reference Example 2) and hippuryl-L-arginine (Sigma Chemical Company—cat no. H6625) to hippuric acid using a HPLC based assay similar to that described in Example 6.
(§5) Samples were incubated for 30 minutes at 37° C. The reactions were terminated by the addition of 500 μl of 40% methanol, 60% distilled water, 0.2% trifluoro acetic acid and the amount of hippuric acid generated was quantitated by HPLC as described in Example 6 but using a mobile phase of 20% methanol, 80% 50 mM phosphate buffer, pH 6.5. Hippuric acid was detected at 230 nm. The results are shown in Table 5 and are expressed as the percentage conversion of substrate into product in 30 minutes at 37° C.

A short description of data set [6]: Activity against Hipp-Asp in crude E. coli periplasmic shockate relative to D253K or D253R HCPB (Example 16). The text has this:
(§6) A number of other mutant HCPBs have been constructed in a similar manner to the methods described in Reference Examples 7 and 8, and Examples 12, 13, 14 and 15. In each case oligos were constructed to introduce specific changes in the gene sequence by methods similar to those described above. In some cases additional mutations were identified upon complete sequencing of the mutated gene, and these were presumably introduced during the PCR reactions. Mutants with enzyme activity against substrate analogues (see Example 18 below) have been identified, and examples of these are given in Table 4 below. […] This material is subsequently referred to as periplasmic shockate or shockate and is prepared by the following procedure.
(§7) 1. A single colony was used to inoculate 75 ml of L-broth nutrient media containing 10 μg/ml tetracycline and arabinose to a final concentration of 0.01% (w/v). Incubation was performed at 20° C. with shaking (250 rpm) for about 60 hours.
(§8) 2. The cells were then harvested by centrifugation at 4° C.
(§9) 3. The cell pellet was re-suspended in 300 micro-liters of 20% sucrose (w/v) containing 1 mM EDTA in 200 mM Tris-HCl at pH7.5, and incubated at room-temperature for 15 minutes.
(§10) 4. Periplasmic shockate was generated by the addition of 450 micro-liters of distilled water, and a further incubation at room-temperature for 15 minutes.
(§11) 5. Cellular remains were removed by centrifugation, and the supernatant assayed for enzyme activity as soon as possible after preparation and kept at 4° C. prior to assay.
The activity of [G251T,D253K]HCPB was measured using the assay conditions described in Example 17 but using either 50 μl of a neat or 1 in 10 or 1 in 100 dilution of [G251T,D253K]HCPB crude E.coli periplasmic shockate (shockate) sample in place of purified enzyme. Samples were incubated for 24 h at 37° C. […] For other HCPB mutants, the reaction volume was 250 μl and contained 125 μl of neat shockate or 1 in 50 dilution of shockate. The shockate samples were prepared as described in Example 16. The amount of Hippuric acid produced in 24 h was quantified by HPLC as described in Example 17 and the results are shown in Table 6 and are expressed as the percentage conversion of substrate into product in 24 h at 37° C.

A short description of data set [7]: Conversion of Hipp-Arg by purified HCPB mutants, 30 minutes, HPLC (Example 17). The following applies: 0.5 mM substrate, 30 minutes at 37° C. The procedure: as §4, §5
The nature of data set [8]: Conversion of Hipp-Asp by purified HCPB mutants, 30 minutes, HPLC (Example 17). The following applies: 0.5 mM substrate, 30 minutes at 37° C. The procedure: as §4, §5
Data set [9] in a line: Activity against Hipp-Glu in crude E. coli periplasmic shockate relative to D253K or D253R HCPB (Example 16).
Excerpt: as §6, §7, §8, §9, §10, §11
The activity of [G251T,D253K]HCPB was measured using the assay conditions described in Example 17 but using either 50 μl of a neat or 1 in 10 or 1 in 100 dilution of [G251T,D253K]HCPB crude E.coli periplasmic shockate (shockate) sample in place of purified enzyme. Samples were incubated for 24 h at 37° C. […] The amount of Hippuric acid produced in 24 h was quantified by HPLC as described in Example 17 and the results are shown in Table 6 and are expressed as the percentage conversion of substrate into product in 24 h at 37° C.

B1: D253R HCPB: mature HCPB with aspartate 253 changed to arginine, C-terminal (His)6-c-myc tag (protein, UniProt P15086 111-417, looked up, variant D253R)
Carboxypeptidase B: ATGHSYEKYNKWETIEAWTQQVATENPALISRSVIGTTFEGRAIYLLKVGKAGQNKPAIFMDCGFHAREWISPAFCQWFVREAVRTYGREIQVTELLDKLDFYVLPVLNIDGYIYTWTKSRFWRKTRSTHTGSSCIGTDPNRNFDAGWCEIGASRNPCDETYCGPAAESEKETKALADFIRNKLSSIKAYLTIHSYSQMMIYPYSYAYKLGENNAELNALAKATVKELASLHGTKYTYGPGATTIYPAAGGSRDWAYDQGIRYSFTFELRDTGRYGFLLPESQIRATCEETFLAIKYVASYVLEHLY
modifications: (His)6-c-myc tag
Turning to B1, the “Prodrug Hydrolysis (%)” value in data set [1] is reported as 18.3%. Further, in data set [2], the “Hipp-Arg (% conversion to Hippuric acid)” value was found to be 3%. For the same molecule, the “Hipp-Glu (% conversion to Hippuric acid)” value in data set [3] came to 52%. Further, the “Hipp-Asp (% conversion to Hippuric acid)” value in [4] turned out to be 72%.

B2: [I201S, D253K]: HCPB mutant with I201S and D253K (protein, UniProt P15086 111-417, looked up, variant I201S D253K)
Carboxypeptidase B: B1 Carboxypeptidase B with I201S, R253K
B2: in data set [1], the “Prodrug Hydrolysis (%)” value came to 72.6%. Moreover, the figures for the “Hipp-Glu (% conversion)” value in data set [5] (enzyme 2.5 μg/ml) and in [5] (enzyme 25 μg/ml) were 4.6% and 27.8%, respectively. The “Hipp-Asp, activity relative to D253K HCPB or D253R HCPB” value in [6] is “b (activity equivalent to D253R HCPB)”. The “Hipp-Arg (% conversion)” value in [7] (enzyme 2.5 μg/ml) and in [7] (enzyme 25 μg/ml) was 0% throughout. Besides, the “Hipp-Asp (% conversion)” value in data set [8] (enzyme 2.5 μg/ml) is 5.8%; in [8] (enzyme 25 μg/ml), 33.1%. The “Hipp-Glu, activity relative to D253K HCPB or D253R HCPB” value in [9] is “NAD (No activity detected)”.

B3: [I201T, D253R]: HCPB mutant with I201T and D253R, (His)6-c-myc tag (protein, UniProt P15086 111-417, looked up, variant I201T D253R)
Carboxypeptidase B: B1 Carboxypeptidase B with I201T
modifications: (His)6-c-myc tag
For the molecule B3, in data set [6], the “Hipp-Asp, activity relative to D253K HCPB or D253R HCPB” value was “b (activity equivalent to D253R HCPB)”. Moreover, the “Hipp-Glu, activity relative to D253K HCPB or D253R HCPB” value in data set [9] was “b (activity equivalent to D253R HCPB)”.

B4: [A248S, G251S, D253K]: HCPB mutant with A248S, G251S and D253K (protein, UniProt P15086 111-417, looked up, variant A248S G251S D253K)
Carboxypeptidase B: B1 Carboxypeptidase B with A248S, G251S, R253K
Regarding B4, in data set [6], the “Hipp-Asp, activity relative to D253K HCPB or D253R HCPB” value was “NAD (No activity detected)”.

The values above are taken from patent US6436691B1, “Chemical compounds” (Zeneca Limited, priority 1995, dated 2002).
